These results are taken from the supplement of paper PMC10126150.

± gives the standard deviation of the averaged measurements.
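Further: ATP exposure 15 min at 22 °C before imaging.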

This data set relates to ATP. Briefly: switch fluorescence ratio, 500 uM ATP over buffer (Cy3 cluster intensity, sum of 5 cycles each) (fold (ratio)); higher = stronger signal-on switching upon ATP binding; sequences stand for … in TCGTCGGCAGCGTCAGATGTGTATAAGAGACAGTTTTTTTTTTTTTTTTTTTTTTTTT…TC. The following applies: aptamer strand: ATP DNA aptamer (quencher-CACCTGGGGGAGTATTGCGGAGGAAGG + anchor), 100 nM annealed; ATP concentration: 500 uM. In outline: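 Clusters carrying Cy3-labelled switching strands on a modified Illumina MiSeq flow-cell were annealed to 100 nM quencher-labelled ATP aptamer and imaged in selection buffer. They were imaged again after 15 min with 500 uM ATP at 22 °C, over five buffer/ATP cycles with NaOH stripping and re-annealing in between. For each cluster, the fluorescence ratio is the summed Cy3 intensity of the target cycles divided by that of the buffer cycles, averaged per switch-domain sequence. Clusters outside 100-1000 RFU were left out.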
In the case of GCAGGCCTGA, the switch fluorescence ratio was 1.01 ± 0.029. AGGTGATTTT: the switch fluorescence ratio was determined as 0.991 ± 0.013. Regarding GGAAACTCGG, the switch fluorescence ratio is 0.986 ± 0.029. Next, TGGGGGCTAC: 1 ± 0.01; TATCGGGGCT: 0.981 ± 0.064; CATTTAGGGG: 0.995 ± 0.036. GGCATTTGGA: the switch fluorescence ratio came out at 0.98 ± 0.035.

For the sequence TAAGGCTGGG, the switch fluorescence ratio was 0.962 ± 0.034. For the sequence TATCTCAGAA, the switch fluorescence ratio was determined as 0.99 ± 0.014. To TTTTTTTTAA belongs 1.01 ± 0.045; to CTTTGTCGGT, 1.03 ± 0.054.

Regarding TTTCCTGTGT, the switch fluorescence ratio is 1.01 ± 0.017. Next, GGGTTCATGG: 1.01 ± 0.047.

ATAGACGTCC: the switch fluorescence ratio is 0.993 ± 0.015. Next, AGATTGTATG: 1.01 ± 0.039; ATACTCGTGG: 1.01 ± 0.042. Next, TTTTTGGATG: 1.02 ± 0.057; TTGGGCAAAA: 0.985 ± 0.065.

As to GGGTATGGAG, the switch fluorescence ratio came to 1.02 ± 0.02. In the case of ACATTTGGGT, the switch fluorescence ratio turned out to be 1.0104 ± 0.00044.

CACTGTATCG: the switch fluorescence ratio was found to be 1.13 ± 0.063.

For GCCAGGGCGC, the switch fluorescence ratio is 1.02 ± 0.018. To CCAAAATTCC belongs 1.12 ± 0.034; to GGTGCGATTG, 1.07 ± 0.052. For the sequence CTTTAACGTG, the switch fluorescence ratio was found to be 0.9718 ± 0.004.

Consider TGGTGTGGGT, for which the switch fluorescence ratio worked out at 0.989 ± 0.014.

Turning to ATTGTTTATT, the switch fluorescence ratio was 0.998 ± 0.012. To AGCAGGGCTT belongs 1.04 ± 0.05; to AACCTTTGTT, 1.06 ± 0.083.

As to GGTTGGGGGG, the switch fluorescence ratio was 1 ± 0.036.

Regarding GGGTCTAATT, the switch fluorescence ratio was 0.9917 ± 0.0014. For GCTGGGCACT, the switch fluorescence ratio turned out to be 1.01 ± 0.035. To TAATAAAATG belongs 0.99 ± 0.015; to TAACAGGGGT, 1.31 ± 0.43.

TTTCAATTTG: the switch fluorescence ratio is 1.04 ± 0.049. With GATATATTGC, the switch fluorescence ratio stood at 1.03 ± 0.012. With TCATCACCGT, the switch fluorescence ratio worked out at 1.01 ± 0.021. Next, TCCGGCACGT: 1.01 ± 0.019; AAATAGGTGA: 1.05 ± 0.025; TATAGGTGCA: 0.997 ± 0.024. Next, GGGCTACTTG: 0.9881 ± 0.0021; TGGGTTATGA: 0.9941 ± 0.0084. As for GCTACAGCTA, the switch fluorescence ratio worked out at 1.01 ± 0.04. Turning to GAATTGCGGG, the switch fluorescence ratio was 1.02 ± 0.087. Next, ATTTAGAATG: 1.02 ± 0.011; GGTTGAGCGT: 1.01 ± 0.047. Next, AGAGGGAGTA: 1 ± 0.022; GCGGGATTCG: 0.998 ± 0.059; TTATGTATTT: 0.995 ± 0.015. To TGGTCTTCGT belongs 0.992 ± 0.057. Turning to TATTTGGTAT, the switch fluorescence ratio was found to be 0.9862 ± 0.0075. With TGGTTTTAAT, the switch fluorescence ratio worked out at 0.973 ± 0.028. To GATTAGGCGG belongs 0.982 ± 0.066; to GGTGGACTTG, 1 ± 0.041; to GGTGGGAGGG, 1.008 ± 0.0073. Turning to ATAAGATTAC, the switch fluorescence ratio was 1.012 ± 0.0091.

CAATTCGTTA: the switch fluorescence ratio turned out to be 1.01 ± 0.0035. As for GTTTACTCGT, the switch fluorescence ratio came out at 1.02 ± 0.012. To TTTCGTTTAC belongs 1.272 ± 0.0071; to TTAATGATTA, 0.994 ± 0.034; to CAGTTTAATG, 1.014 ± 0.0015. AAAGGGTATA: the switch fluorescence ratio turned out to be 0.978 ± 0.064.

Take ATGGGCGGTA: the switch fluorescence ratio turned out to be 1.04 ± 0.052. As to TACGGCGTAC, the switch fluorescence ratio amounted to 1.08 ± 0.051. Next, GCAACATTTT: 1.01 ± 0.043; TTCAGCGCGA: 1.14 ± 0.014; CTTATTGAGC: 1.01 ± 0.012.

For the sequence TTAAGGAAAA, the switch fluorescence ratio was determined as 1.04 ± 0.071.

On to CGGTGGTGAG, for which the switch fluorescence ratio amounted to 1.012 ± 0.0049. To TTCGGGCAGG belongs 1.06 ± 0.054; to GCGACCCTT, 1.12 ± 0.037. To AAATCGAGGA belongs 1.018 ± 0.0096; to TGCTTTTCCG, 1.1 ± 0.07; to GATTTAGGTT, 0.999 ± 0.015. Next, TTAGCCAGCT: 0.96986 ± 0.00044; TTATCGAATG: 0.965 ± 0.065; GACCTTGGTG: 1.03 ± 0.083. Regarding GGGAGTTGG, the switch fluorescence ratio came out at 0.992 ± 0.017. AGAGGGGAGT: the switch fluorescence ratio was found to be 1.021 ± 0.0016.

On to TAGAGCTTAG, for which the switch fluorescence ratio came to 0.9812 ± 0.0037. For ATCCGGGTGT, the switch fluorescence ratio was 2.74 ± 0.17. Next, CTGGGGGCGC: 0.996 ± 0.03. Take GGTTAAACAA: the switch fluorescence ratio was 1.01 ± 0.016.

On to TCGGGGTCTG, for which the switch fluorescence ratio worked out at 0.9872 ± 0.0066. Next, ATACCTTCGT: 1.692 ± 0.012; ATAAAAAGCA: 0.995 ± 0.04. For the sequence TTTAAGAGGT, the switch fluorescence ratio came to 0.982 ± 0.023. To AGGAGTAATT belongs 1.01 ± 0.024.

With CGTGGGTCCA, the switch fluorescence ratio turned out to be 1.024 ± 0.01. Next, GGGAGAAGGT: 0.967 ± 0.011; GAGATTGGGA: 1.04 ± 0.045. To GCTAAACGTG belongs 0.959 ± 0.014; to TTTGTTGGGA, 1.02 ± 0.013; to GGGCTGCGGA, 0.976 ± 0.051. Regarding GTCATCGGCC, the switch fluorescence ratio worked out at 0.996 ± 0.035. Next, AATTGGGTGC: 1.09 ± 0.12; TTTTTGCGTT: 0.976 ± 0.037.

With TTAGTACCAT, the switch fluorescence ratio was determined as 1.01 ± 0.028.

Consider TTTACAGGGA, for which the switch fluorescence ratio was determined as 1.027 ± 0.0086. Take TTCGTTCCGT: the switch fluorescence ratio was determined as 1.03 ± 0.019. As for TTGGCTTTTA, the switch fluorescence ratio is 0.99017 ± 0.00047. For the sequence GGGGGAATTG, the switch fluorescence ratio was 1.02 ± 0.075. Next, CGGGGAACTT: 1.01 ± 0.019. To GCGCCGTGGC belongs 0.99035 ± 0.00081; to TGGGTAAAAT, 0.971 ± 0.03; to GTAATAGTTG, 1.01 ± 0.022. Next, ATGGGGGTCC: 1.01 ± 0.068; TTAGTGTAAT: 1.01 ± 0.025. For the sequence TGTTGCAATA, the switch fluorescence ratio came out at 1.24 ± 0.4. To AACTCGGATC belongs 1.01 ± 0.042. To CGCATTCGTG belongs 1.08 ± 0.029. Next, TGAGTTGTTT: 0.985 ± 0.013. In the case of CCGGGGGATC, the switch fluorescence ratio stood at 1.1 ± 0.017. As for TCTAGTGGGG, the switch fluorescence ratio is 1.01 ± 0.028. Next, CTGTCAGACT: 1.03 ± 0.058.

Regarding ATATAGGTTG, the switch fluorescence ratio was determined as 0.974 ± 0.051. Regarding TCCGGTCGAT, the switch fluorescence ratio was 1.127 ± 0.0072. To TGGGGCGGTT belongs 0.979 ± 0.024. To TCTTATTGCT belongs 0.96 ± 0.045; to TTGTGGGTCG, 0.984 ± 0.031.
